Experimental data taken from patent publication US7786071B2 (priority 2003, dated 2010).
Where two headings read alike, the source gives them in different places.

Experiments:
[1] = type: biochemical; settings: pH 8; for Km: read-out: KM(PheAc)
[2] = type: biochemical
[3] = read-out: Paraxon hydrolysis KM

B1: G1C4: first-round directly evolved PON1 variant, thioredoxin-fused; SEQ ID NO: 26 (DNA), 58 (protein) (protein)
chain: MAKLLALTLVGLGLALFDGQKSSFQTRFNVHREVTPVELPNCNLVKGIETGAEDLEILPNGLAFISSGLKYPGIMSFDPDKSGKILLMDLNEEDPVVLELGITGSTFDLSSFNPHGISTFTDEDNTVYLLVVNHPDSSSTVEVFKFQEKEKSLLHLKTIRHKLLPSVNDIVAVGPEHFYATNDHYFIDPYLKSWEMHLGLAWSFVTYYSPNDVRVVAEGFDFANGINISPDGKYVYIAELLAHKIHVYEKHANWTLTPLKSLDFNTLVDNISVDPVTGDLWVGCHPNGMRIFYYDPKNPPASEVLRIQDILSEDPKITVVYAENGTVLQGTTVASVYKGKLLIGTVFHKALYCDL
modifications: thioredoxin-fused; In vitro evolved PON variant G1C4
kcat (PheAc) [1]: 552 s⁻¹
Km [1]: 540 µM
kcat(Paraoxon) ([2]; pH 8): 0.54 s⁻¹
Km ([2]; pH 8, read-out: KM(Paraoxon)): 120 µM

B2: G3H9: third generation trx-rPON3 variant; SEQ ID NO: 48, 54 (protein)
chain: MAKLLLLTLLGVGLSLVGERLLAFRNSFGAVQELESVEPQNCVLIEGLENGSEDIDILPSGLAFISSGLKYPGMPNFAPDEPGKIFLIDMNEKNPRAQELKISNGFEKESFNPHGISTFIDKDHTVYLYVVNHPNMDSTVEIFKFEEQQRSLVHLKTIKHELLKSVNDIVVLGPEQFYATRDHYFTNSLLSFFEMILDLRWTSVVFYSPKEVKVVAKGFSSANGITVSLDKKYVYVADATAKNVHVMEKHDNWDLTPVKVIQLGTLVDNLTVDPATGDILAGCHPNPMKLLNYNPEDPPGSEVLRIQNVLSEKPRVSTVYTNDGSVLQGTSVASVYQGKILIGTIFHKALYCDL
modifications: thioredoxin fusion; In vitro evolved PON variant G3H9
Km [2, 3]: 800 µM

B3: G3A5: third generation trx-rPON3 variant; SEQ ID NO: 46, 52 (protein)
chain: MGELLLLTLLGASLAFVGEMFLAFRERVNASREVEPVEPQNCVLIEGLENGSEDIDILPNGLAFISSGLKYPGMPNFAPDEPGKIFLMDLNEQNPRAQELEISNGFEKESFNPHGISTFIDKDHTVYLYVVNHPNMDSTVEIFKFEERQRSLVHLKTIKHELLKSVNDIVVLGPEQFYATRDRYFTNYVLALLEMILDPHWTSVVFYSPKEVKVVAQGFSSANGITVSLDKKYVYVADATAKNVHVMEKHDNWDLTPVKVIQLGTLVDNLSVDPATGDILAGCHPNPMKLLNYNPEDPPGSEVLRIRNVLSEKPRVSTVYTNDGSVLQGTSVASVYQGKILIGTIFHKTLYCDL
modifications: thioredoxin fusion; In vitro evolved PON variant G3A5
Km [2, 3]: 510 µM

B4: G2E6: second-round directly evolved PON1 variant whose 3D structure was solved; SEQ ID NO: 28 (DNA), 60 (protein); 'wt' of Table 12 (protein)
chain: MAKLTALTLLGMGLALFDRQKSSFQTRFNVHREVTPVELPNCNLVKGIDNGSEDLEILPNGLAFISSGLKYPGIMSFDPDKSGKILLMDLNEKEPAVSELEIIGNTLDISSFNPHGISTFIDDDNTVYLLVVNHPGSSSTVEVFKFQEEEKSLLHLKTIRHKLLPSVNDIVAVGPEHFYATNDHYFIDPYLKSWEMHLGLAWSFVTYYSPNDVRVVAEGFDFANGINISPDGKYVYIAELLAHKIHVYEKHANWTLTPLRVLSFDTLVDNISVDPVTGDLWVGCHPNGMRIFFYDAENPPGSEVLRIQDILSEEPKVTVVYAENGTVLQGSTVAAVYKGKLLIGTVFHKALYCDL
modifications: In vitro evolved PON variant G2E6
kcat (PheAc) [1]: 965 s⁻¹
Km [1]: 430 µM
kcat(Paraoxon) ([2]; pH 8): 0.87 s⁻¹
Km ([2]; pH 8, read-out: KM(Paraoxon)): 89 µM
